Measured values as given in FireProtDB (doi:10.1002/prot.24420).
Values joined by “and” are separate entries in the source; they are usually repeats but may differ in a detail not shown here. Equal values may be shown once.

B1: C426A, Q8GRA2 (parent)
chain: MKKTRFPNKLNTLNTQRVLSKNSKRFTVTLVGVFLMIFALVTSMVGAKTVFGLVESSTPNAINPDSSSEYRWYGYESYVRGHPYYKQFRVAHDLRVNLEGSRSYQVYCFNLKKAFPLGSDSSVKKWYKKHDGISTKFEDYAISPRITGDELNQKLRAVMYNGHPQNANGIMEGLEPLNAIRVTQEAVWYYSDNAPISNPDESFKRESESNLVSTSQLSLMRQALKQLIDPNLATKMPKQVPDDFQLSIFESEDKGDKYNKGYQNLLSGGLVPTKPPTPGDPPMPPNQPQTTSVLIRKYAIGDYSKLLEGATLQLTGDNVNSFQARVFSSNDIGERIELSDGTYTLTELNSPAGYSIAEPITFKVEAGKVYTIIDGKQIENPNKEIVEPYSVEAYNDFEEFSVLTTQNYAKFYYAKNKNGSSQVVYCFNADLKSPPDSEDGGKTMTPDFTTGEVKYTHIAGRDLFKYTVKPRDTDPDTFLKHIKKVIEKGYREKGQAIEYSGLTETQLRAATQLAIYYFTDSAELDKDKLKDYHGFGDMNDSTLAVAKILVEYAQDSNPPQLTDLDFFIPNNNKYQSLIGTQWHPEDLVDIIRMEDKKEVIPVTHNLTLRKTVTGLAGDRTKDFHFEIELKNNKQELLSQTVKTDKTNLEFKDGKATINLKHGESLTLQGLPEGYSYLVKETDSEGYKVKVNSQEVANATVSKTGITSDETLAFENNKEPVVPTGVDQKINGYLALIVIAGISLGIWGIHTIRIRKHD

Variants of: B1
Settings: Streptococcus pyogenes; pH 7.2; Thermal; CD; Potassium phosphate 50mM; structure 2XIC; whole UniProt chain shown

| Variant | change of melting temperature, mutant - wild type (higher = more stable) | unfolding enthalpy (van 't Hoff) |
| --- | --- | --- |
| C426A | -1.7 °C and 0.2 °C | 113 kcal/mol and 123 kcal/mol |
| D595A | – | 108 kcal/mol and 115 kcal/mol |
| N715A | – | 147 kcal/mol and 85.9 kcal/mol |
| D595A N715A | – | 62.1 kcal/mol and 71.4 kcal/mol |
